Source: the supplement of paper PMC11246515
± gives the standard deviation of the averaged measurements.

Assay: total protein half-life in vivo (active degradation + dilution); higher = more stable protein
[1] = E. coli NCM3722 delta-clpP delta-lon delta-hslV, growth: N-lim chemostat, doubling time 6 h
[2] = E. coli NCM3722 delta-clpP, growth: N-lim chemostat, doubling time 6 h
[3] = E. coli NCM3722 delta-lon, growth: N-lim chemostat, doubling time 6 h
[4] = wild type E. coli NCM3722, growth: C-lim chemostat, doubling time 6 h
[5] = wild type E. coli NCM3722, growth: C-lim chemostat, doubling time 12 h
[6] = wild type E. coli NCM3722, growth: N-lim chemostat, doubling time 6 h
[7] = wild type E. coli NCM3722, growth: N-lim chemostat, doubling time 12 h
[8] = wild type E. coli NCM3722, growth: P-lim chemostat, doubling time 6 h
[9] = wild type E. coli NCM3722, growth: P-lim chemostat, doubling time 12 h
[10] = E. coli NCM3722 delta-hslV, growth: N-lim chemostat, doubling time 6 h
[11] = E. coli NCM3722 delta-smpB, growth: N-lim chemostat, doubling time 6 h
[12] = wild type E. coli NCM3722, growth: C-lim chemostat, doubling time 3 h

Question: Which “total protein half-life in vivo” value [1] does the source give for “MRWILFILFCLLGAPAHAVSIPGVTTTTTTDSTTEPAPEPDIEQKKAAYGALADVLDNDTSRKELIDQLRTVAATPPAEPVPKIVPPTLVEEQTVLQKVTEVSRHYGEALSARFGQLYRNITGSPHKPFNPQTFSNALTHFSMLAVLVFGFYWLIRLCALPLYRKMGQWARQKNRERSNWLQLPAMIIGAFIIDLLLLALTLFVGQVLSDNLNAGSRTIAFQQSLFLNAFALIEFFKAVLRLIFCPNVAELRPFTIQDESARYWSRRLSWLSSLIGYGLIVAVPIISNQVNVQIGALANVIIMLCMTVWALYLIFRNKKEITQHLLNFAEHSLAFFSLFIRAFALVWHWLASAYFIVLFFFSLFDPGNSLKFMMGATVRSLAIIGIAAFVSGMFSRWLAKTITLSPHTQRNYPELQKRLNGWLSAALKTARILTVCVAVMLLLSAWGLFDFWNWLQNGAGQKTVDILIRIALILFFSAVGWTVLASLIENRLASDIHGRPLPSARTRTLLTLFRNALAVIISTITIMIVLSEIGVNIAPLLAGAGALGLAISFGSQTLVKDIITGVFIQFENGMNTGDLVTIGPLTGTVERMSIRSVGVRQDTGAYHIIPWSSITTFANFVRGIGSVVANYDVDRHEDADKANQALKDAVAELMENEEIRGLIIGEPNFAGIVGLSNTAFTLRVSFTTLPLKQWTVRFALDSQVKKHFDLAGVRAPVQTYQVLPAPGATPAEPLPPGEPTL” here?
Answer: 4.93 ± 1 h

Question: What about the “total protein half-life in vivo” value [2] of the same sequence?
Answer: 6.1 ± 0.28 h

Question: And the “total protein half-life in vivo” value [3]?
Answer: 5.15 ± 0.43 h

Question: And the “total protein half-life in vivo” value [4]?
Answer: 2.55 ± 2 h

Question: And the “total protein half-life in vivo” value [5]?
Answer: 6.41 ± 4.3 h

Question: What about the “total protein half-life in vivo” value [6] of the same sequence?
Answer: 4.92 h

Question: And the “total protein half-life in vivo” value [7]?
Answer: 9.64 ± 0.63 h

Question: What about the “total protein half-life in vivo” value [8] of the same sequence?
Answer: 6.83 ± 0.65 h

Question: And the “total protein half-life in vivo” value [9]?
Answer: 13 ± 1.4 h

Question: Which results are given for “MRYIRQLCCVSLLCLSGSAVAANVRLQVEGLSGQLEKNVRAQLSTIESDEVTPDRRFRARVDDAIREGLKALGYYQPTIEFDLRPPPKKGRQVLIAKVTPGVPVLIGGTDVVLRGGARTDKDYLKLLDTRPAIGTVLNQGDYENFKKSLTSIALRKGYFDSEFTKAQLGIALGLHKAFWDIDYNSGERYRFGHVTFEGSQIRDEYLQNLVPFKEGDEYESKDLAELNRRLSATGWFNSVVVAPQFDKARETKVLPLTGVVSPRTENTIETGVGYSTDVGPRVKATWKKPWMNSYGHSLTTSTSISAPEQTLDFSYKMPLLKNPLEQYYLVQGGFKRTDLNDTESDSTTLVASRYWDLSSGWQRAINLRWSLDHFTQGEITNTTMLFYPGVMISRTRSRGGLMPTWGDSQRYSIDYSNTAWGSDVDFSVFQAQNVWIRTLYDRHRFVTRGTLGWIETGDFDKVPPDLRFFAGGDRSIRGYKYKSIAPKYANGDLKGASKLITGSLEYQYNVTGKWWGAVFVDSGEAVSDIRRSDFKTGTGVGVRWESPVGPIKLDFAVPVADKDEHGLQFYIGLGPEL [P0ADE4]”?
Answer: total protein half-life in vivo [2]: 6.81 ± 0.13 h; total protein half-life in vivo [10]: 6.538 ± 0.011 h; total protein half-life in vivo [3]: 6.38 ± 0.61 h; total protein half-life in vivo [11]: 5.85 ± 0.15 h; total protein half-life in vivo [12]: 3.013 ± 0.0066 h; total protein half-life in vivo [4]: 6.21 ± 0.37 h; total protein half-life in vivo [5]: 12.8 ± 0.55 h; total protein half-life in vivo [6]: 6.59 ± 1 h; total protein half-life in vivo [7]: 13.5 ± 0.56 h; total protein half-life in vivo [8]: 6.31 ± 0.16 h; total protein half-life in vivo [9]: 13.8 ± 0.96 h

Question: Which “total protein half-life in vivo” value [11] does the source give for “MRYLNTKNIIAAGVLLSCMSSIAWGAIIPDRTRIIMNESDKGEALKLTNQSKNLPYLAQTWIEDTKGNKSRDFIVTVPPMVRLNPSEQIQIRMITQEKIAQLPKDRETLFYFNVREIPPKTDKKNVMQVTMQHALKLFWRPKAIELEDDGVMTYEKVEIIRRNDGSIRFNNKMPYHVTLGYIGTNGVTMLPQTQSLMVTPFSYANTQFKNVPSTFQVGYINDFGGLSFYEINCPVVNNICNISVANRDQ” here?
Answer: 5.38 h

Question: What about the “total protein half-life in vivo” value [6] of the same sequence?
Answer: 5.39 h

Question: What about the “total protein half-life in vivo” value [7] of the same sequence?
Answer: 11.3 h

Question: And the “total protein half-life in vivo” value [8]?
Answer: 5.6 h

Question: And the “total protein half-life in vivo” value [9]?
Answer: 14.3 h

Question: Which results are given for “MSAGKLPEGWVIAPVSTVTTLIRGVTYKKEQAINYLKDDYLPLIRANNIQNGKFDTTDLVFVPKNLVKESQKISPEDIVIAMSSGSKSVVGKSAHQHLPFECSFGAFCGVLRPEKLIFSGFIAHFTKSSLYRNKISSLSAGANINNIKPASFDLINIPIPPLAEQKIIAEKLDTLLAQVDSTKARFEQIPQILKRFRQAVLGGAVNGKLTEKWRNFEPQHSVFKKLNFESILTELRNGLSSKPNESGVGHPILRISSVRAGHVDQNDIRFLECSESELNRHKLQDGDLLFTRYNGSLEFVGVCGLLKKLQHQNLLYPDKLIRARLTKDALPEYIEIFFSSPSARNAMMNCVKTTSGQKGISGKDIKSQVVLLPPVKEQAEIVRRVEQLFAYADTIEKQVNNALARVNNLTQSILAKAFRGELTAQWRAENPDLISGENSAAALLEKIKAERAASGGKKASRKKS”?
Answer: total protein half-life in vivo [1]: 5.47 ± 0.81 h; total protein half-life in vivo [2]: 5.86 ± 0.12 h; total protein half-life in vivo [10]: 5.48 ± 0.098 h; total protein half-life in vivo [3]: 6.44 ± 0.56 h; total protein half-life in vivo [11]: 5.68 ± 0.34 h; total protein half-life in vivo [12]: 3.08 ± 0.36 h; total protein half-life in vivo [4]: 6.03 ± 0.34 h; total protein half-life in vivo [5]: 10.9 ± 0.68 h; total protein half-life in vivo [6]: 5.84 ± 0.44 h; total protein half-life in vivo [7]: 10.7 ± 0.57 h; total protein half-life in vivo [8]: 5.46 ± 0.33 h; total protein half-life in vivo [9]: 10.9 ± 0.15 h

Question: Which “total protein half-life in vivo” value [1] does the source give for “MSAIAPGMILIAYLCGSISSAILVCRLCGLPDPRTSGSGNPGATNVLRIGGKGAAVAVLIFDVLKGMLPVWGAYELGVSPFWLGLIAIAACLGHIWPVFFGFKGGKGVATAFGAIAPIGWDLTGVMAGTWLLTVLLSGYSSLGAIVSALIAPFYVWWFKPQFTFPVSMLSCLILLRHHDNIQRLWRRQETKIWTKFKRKREKDPE” here?
Answer: 6.82 h

Question: What about the “total protein half-life in vivo” value [2] of the same sequence?
Answer: 6.64 h

Question: And the “total protein half-life in vivo” value [10]?
Answer: > 8 h

Question: What about the “total protein half-life in vivo” value [3] of the same sequence?
Answer: 7.06 h

Question: And the “total protein half-life in vivo” value [11]?
Answer: 5.72 h

Question: And the “total protein half-life in vivo” value [4]?
Answer: 6.29 h

Question: And the “total protein half-life in vivo” value [6]?
Answer: 6.93 ± 0.78 h

Question: What about the “total protein half-life in vivo” value [7] of the same sequence?
Answer: 9.94 h

Question: What about the “total protein half-life in vivo” value [8] of the same sequence?
Answer: 6.01 ± 0.4 h

Question: And the “total protein half-life in vivo” value [9]?
Answer: 11 h

Question: What does the source list for “MSAIDCIITAAGLSSRMGQWKMMLPWEQGTILDTSIKNALQFCSRIILVTGYRGNELHERYANQSNITIIHNPDYAQGLLTSVKAAVPAVQTEHCFLTHGDMPTLTIDIFRKIWSLRNDGAILPLHNGIPGHPILVSKPCLMQAIQRPNVTNMRQALLMGDHYSVEIENAEIILDIDTPDDFITAKERYTEI”?
Answer: total protein half-life in vivo [1]: 4.34 h; total protein half-life in vivo [2]: 3 ± 0.059 h; total protein half-life in vivo [11]: 1.3 h; total protein half-life in vivo [4]: 2.39 ± 0.048 h; total protein half-life in vivo [5]: 3.15 ± 0.1 h
